Results as given in paper doi:10.1101/2023.03.31.535174.

Target: T1, AP2-I_D3 (AP2 domain 3) (Plasmodium falciparum, UniProt Q8IJW6 775-824)
T1 chain: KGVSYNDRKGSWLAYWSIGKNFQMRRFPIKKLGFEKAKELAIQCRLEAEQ
Experiment: EMSA

B1: AGTGCATTA probe with distal shape mutations (series, up to six point mutations) (dsDNA)
DNA 1: GATAAAATGAGTAAAGTGCATTAAATGTTGTACACC
DNA 2: GGTGTACAACATTTAATGCACTTTACTCATTTTATC
- binding result: binds
